From PMC4215257, “Geminin Inhibits a Late Step in the Formation of Human Pre-replicative Complexes*” (The Journal of Biological Chemistry, 2014)

T1: FLAG-HsGeminin-His6 (wild type) (Homo sapiens (Human), UniProt O75496)
T1 chain: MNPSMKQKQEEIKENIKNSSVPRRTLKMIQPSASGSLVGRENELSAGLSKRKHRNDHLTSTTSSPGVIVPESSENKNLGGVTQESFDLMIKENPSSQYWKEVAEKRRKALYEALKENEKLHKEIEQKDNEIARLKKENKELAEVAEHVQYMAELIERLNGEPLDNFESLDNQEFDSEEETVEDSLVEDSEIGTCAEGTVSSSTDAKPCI

B1: FLAG-HsCdt1 (natural protein, human, UniProt Q9H211 1-546, looked up)
chain: MEQRRVTDFFARRRPGPPRIAPPKLACRTPSPARPALRAPASATSGSRKRARPPAAPGRDQARPPARRRLRLSVDEVSSPSTPEAPDIPACPSPGQKIKKSTPAAGQPPHLTSAQDQDTISELASCLQRARELGARVRALKASAQDAGESCTPEAEGRPEEPCGEKAPAYQRFHALAQPGLPGLVLPYKYQVLAEMFRSMDTIVGMLHNRSETPTFAKVQRGVQDMMRRRFEECNVGQIKTVYPASYRFRQERSVPTFKDGTRRSDYQLTIEPLLEQEADGAAPQLTASRLLQRRQIFSQKLVEHVKEHHKAFLASLSPAMVVPEDQLTRWHPRFNVDEVPDIEPAALPQPPATEKLTTAQEVLARARNLISPRMEKALSQLALRSAAPSSPGSPRPALPATPPATPPAASPSALKGVSQDLLERIRAKEAQKQLAQMTRCPEQEQRLQRLERLPELARVLRSVFVSERKPALSMEVACARMVGSCCTIMSPGEMEKHLLLLSELLPDWLSLHRIRTDTYVKLDKAADLAHITARLAHQTRAEEGL
notes: human Cdt1; also called human Cdt1; source: Sf9, baculovirus; purified (anti-FLAG M2 agarose, FLAG peptide elution); also in Sf9 lysate; not shown: FLAG, N-terminal, kept
B2: FLAG-HsGeminin-His6 (wild type) (natural protein, human, UniProt O75496 1-209, looked up)
chain: MNPSMKQKQEEIKENIKNSSVPRRTLKMIQPSASGSLVGRENELSAGLSKRKHRNDHLTSTTSSPGVIVPESSENKNLGGVTQESFDLMIKENPSSQYWKEVAEKRRKALYEALKENEKLHKEIEQKDNEIARLKKENKELAEVAEHVQYMAELIERLNGEPLDNFESLDNQEFDSEEETVEDSLVEDSEIGTCAEGTVSSSTDAKPCI
notes: also called wild-type HsGeminin; wt; source: Sf9, baculovirus; purified (Ni-NTA, then anti-FLAG M2 agarose); also in Sf9 lysate; not shown: FLAG, N-terminal, kept; His6, C-terminal, kept
B3: Myc-HsCdc6 (natural protein, human, UniProt Q99741 1-560, looked up)
chain: MPQTRSQAQATISFPKRKLSRALNKAKNSSDAKLEPTNVQTVTCSPRVKALPLSPRKRLGDDNLCNTPHLPPCSPPKQGKKENGPPHSHTLKGRRLVFDNQLTIKSPSKRELAKVHQNKILSSVRKSQEITTNSEQRCPLKKESACVRLFKQEGTCYQQAKLVLNTAVPDRLPAREREMDVIRNFLREHICGKKAGSLYLSGAPGTGKTACLSRILQDLKKELKGFKTIMLNCMSLRTAQAVFPAIAQEICQEEVSRPAGKDMMRKLEKHMTAEKGPMIVLVLDEMDQLDSKGQDVLYTLFEWPWLSNSHLVLIGIANTLDLTDRILPRLQAREKCKPQLLNFPPYTRNQIVTILQDRLNQVSRDQVLDNAAVQFCARKVSAVSGDVRKALDVCRRAIEIVESDVKSQTILKPLSECKSPSEPLIPKRVGLIHISQVISEVDGNRMTLSQEGAQDSFPLQQKILVCSLMLLIRQLKIKEVTLGKLYEAYSKVCRKQQVAAVDQSECLSLSGLLEARGILGLKRNKETRLTKVFFKIEEKEIEHALKDKALIGNILATGLP
notes: human Cdc6; also called human Cdc6; source: Sf9, baculovirus; purified (anti-c-Myc 9E10 agarose, 9E10 peptide elution); also in Sf9 lysate; not shown: Myc, N-terminal, kept

Assays:
[1] = molecular target: T1, FLAG-HsGeminin-His6 (wild type); assay: co-immunoprecipitation of purified proteins (anti-Geminin, 0.5 M NaCl wash, Western blot)
[2] = molecular target: T2, HsMCM467 complex (human, UniProt P33991 1-863; Q14566 1-821; P33993 1-719); assay: recruitment to DNA-coupled magnetic beads; two steps: HsORC or control buffer on pUC19-lamin-B2 DNA beads, then HsMCM467 or HsMCM2–7 with HsCdc6 and/or HsCdt1; 90 mM potassium acetate, 4 mM ATP, 37 °C, 30 min; washed with 100 mM potassium glutamate; Western blot; settings: both partners purified
T2 construct: human Mcm4; human Mcm6, untagged; human Mcm7, untagged; source: Sf9 co-infected with baculoviruses for His6-2xFLAG-HsMcm4, HsMcm6 and HsMcm7; purified (Ni-NTA, then FLAG M2 agarose); copies: + +

[3] = molecular target: B1; assay: co-IP; 60 ng purified FLAG-HsCdt1 with 40 ng wild-type or mutant HsGeminin; rabbit anti-human Geminin polyclonal antibodies on protein A/G plus agarose; PBS plus 1 mg/ml BSA, 4 °C, 3 h; washed with PBS plus 0.5 M NaCl; Western blot; settings: both partners purified
[4] = molecular target: T3, HsMCM2–7 complex (human | human (endogenous in 293T), UniProt P49736 1-904; P25205 1-808; P33991 1-863; P33992 1-734; Q14566 1-821; P33993 …); assay: recruitment to DNA-coupled magnetic beads; two steps: HsORC or control buffer on pUC19-lamin-B2 DNA beads, then HsMCM467 or HsMCM2–7 with HsCdc6 and/or HsCdt1; 90 mM potassium acetate, 4 mM ATP, 37 °C, 30 min; washed with 100 mM potassium glutamate; Western blot; settings: both partners purified
T3 construct: human Mcm2, full length; Mcm3, endogenous in 293T; Mcm4, endogenous in 293T; Mcm5, endogenous in 293T; Mcm6, endogenous in 293T; Mcm7, endogenous in 293T; also called complete heterohexameric human MCM complex; copies: + + + + +

T2 sequence (P33991 whole entry, chain 1 of 3): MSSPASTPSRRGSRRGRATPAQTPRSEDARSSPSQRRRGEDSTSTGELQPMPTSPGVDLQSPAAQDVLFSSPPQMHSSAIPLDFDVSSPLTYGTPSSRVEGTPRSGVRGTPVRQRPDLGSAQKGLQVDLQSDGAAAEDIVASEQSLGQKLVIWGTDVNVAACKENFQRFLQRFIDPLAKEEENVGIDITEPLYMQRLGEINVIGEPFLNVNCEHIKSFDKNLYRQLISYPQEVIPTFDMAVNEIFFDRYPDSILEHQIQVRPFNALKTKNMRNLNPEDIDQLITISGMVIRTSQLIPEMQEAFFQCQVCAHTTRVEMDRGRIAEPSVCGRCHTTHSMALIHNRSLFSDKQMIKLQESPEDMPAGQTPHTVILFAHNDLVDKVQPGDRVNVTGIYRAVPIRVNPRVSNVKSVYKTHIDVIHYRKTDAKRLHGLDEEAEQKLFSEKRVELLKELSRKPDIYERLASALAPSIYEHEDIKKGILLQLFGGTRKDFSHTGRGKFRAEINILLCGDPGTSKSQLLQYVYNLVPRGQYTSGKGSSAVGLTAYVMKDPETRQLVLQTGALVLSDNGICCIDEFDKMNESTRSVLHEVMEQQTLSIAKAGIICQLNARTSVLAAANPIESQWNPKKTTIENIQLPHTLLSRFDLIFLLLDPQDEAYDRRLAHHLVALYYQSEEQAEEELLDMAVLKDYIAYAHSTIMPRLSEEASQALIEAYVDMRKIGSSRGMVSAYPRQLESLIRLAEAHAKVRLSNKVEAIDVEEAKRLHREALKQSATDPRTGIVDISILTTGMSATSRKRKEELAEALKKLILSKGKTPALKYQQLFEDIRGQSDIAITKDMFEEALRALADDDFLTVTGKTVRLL
T2 sequence (Q14566 whole entry, chain 2 of 3): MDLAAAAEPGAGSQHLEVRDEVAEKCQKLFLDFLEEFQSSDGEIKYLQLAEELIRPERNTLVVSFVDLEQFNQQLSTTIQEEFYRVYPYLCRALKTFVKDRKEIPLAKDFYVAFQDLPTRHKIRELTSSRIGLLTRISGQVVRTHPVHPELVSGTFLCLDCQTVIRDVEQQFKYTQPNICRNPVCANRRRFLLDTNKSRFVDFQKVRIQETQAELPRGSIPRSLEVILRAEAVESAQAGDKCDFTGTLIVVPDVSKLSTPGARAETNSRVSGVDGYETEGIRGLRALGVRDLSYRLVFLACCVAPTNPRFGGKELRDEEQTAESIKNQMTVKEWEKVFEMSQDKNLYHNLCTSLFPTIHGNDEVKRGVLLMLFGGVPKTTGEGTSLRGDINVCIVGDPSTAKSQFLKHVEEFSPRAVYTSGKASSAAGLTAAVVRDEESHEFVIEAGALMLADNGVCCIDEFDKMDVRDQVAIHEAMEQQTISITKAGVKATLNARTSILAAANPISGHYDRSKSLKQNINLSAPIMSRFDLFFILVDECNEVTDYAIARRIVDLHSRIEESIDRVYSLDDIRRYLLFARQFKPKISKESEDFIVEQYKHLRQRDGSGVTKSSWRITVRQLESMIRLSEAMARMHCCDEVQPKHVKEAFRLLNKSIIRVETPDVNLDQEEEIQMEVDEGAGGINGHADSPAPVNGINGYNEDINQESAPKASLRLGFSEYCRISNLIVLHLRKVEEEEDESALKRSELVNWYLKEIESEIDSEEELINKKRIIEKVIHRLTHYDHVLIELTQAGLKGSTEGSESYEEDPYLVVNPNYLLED
T2 sequence (P33993 whole entry, chain 3 of 3): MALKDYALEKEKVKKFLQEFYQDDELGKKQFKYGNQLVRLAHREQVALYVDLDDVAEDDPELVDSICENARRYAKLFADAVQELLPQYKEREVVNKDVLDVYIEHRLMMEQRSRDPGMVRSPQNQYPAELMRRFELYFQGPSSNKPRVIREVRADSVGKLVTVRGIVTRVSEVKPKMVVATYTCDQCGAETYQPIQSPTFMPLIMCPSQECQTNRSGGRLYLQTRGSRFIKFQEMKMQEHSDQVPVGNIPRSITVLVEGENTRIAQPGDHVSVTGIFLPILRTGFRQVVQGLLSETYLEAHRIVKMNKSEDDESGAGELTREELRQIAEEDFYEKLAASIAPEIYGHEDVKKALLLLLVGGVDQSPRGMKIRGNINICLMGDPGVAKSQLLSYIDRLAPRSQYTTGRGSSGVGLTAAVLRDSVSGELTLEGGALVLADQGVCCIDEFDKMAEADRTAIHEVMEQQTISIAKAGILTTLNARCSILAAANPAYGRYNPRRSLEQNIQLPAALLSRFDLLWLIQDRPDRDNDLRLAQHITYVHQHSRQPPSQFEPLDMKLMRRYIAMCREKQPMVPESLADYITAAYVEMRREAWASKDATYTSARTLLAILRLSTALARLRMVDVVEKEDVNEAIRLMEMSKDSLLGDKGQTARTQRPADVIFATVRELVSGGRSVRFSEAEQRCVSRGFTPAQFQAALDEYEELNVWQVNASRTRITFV

Row | Binder | binding result [1] | binding result [2] | binding result [3] | binding result [4]
1 | B1 | binds | binds | – | –
2 | B2 | – | – | binds | –
3 | B3 | – | binds | – | binds
